{
  "source": "patent US20190159997A1",
  "about": "“COMPOSITIONS COMPRISING POLYESTERS OF BIOLOGICAL ORIGIN AND BIOCOMPATIBLE INORGANIC COMPOUNDS, AND USES THEREOF IN THE COSMETIC FIELD” (BIO-ON S.p.A., priority 2016, published 2019)",
  "molecules": {"B1": {"name": "lactoferrin (protein, UniProt P02788 20-710, looked up)", "Lactotransferrin": "GRRRSVQWCAVSQPEATKCFQWQRNMRKVRGPPVSCIKRDSPIQCIQAIAENRADAVTLDGGFIYEAGLAPYKLRPVAAEVYGTERQPRTHYYAVAVVKKGGSFQLNELQGLKSCHTGLRRTAGWNVPIGTLRPFLNWTGPPEPIEAAVARFFSASCVPGADKGQFPNLCRLCAGTGENKCAFSSQEPYFSYSGAFKCLRDGAGDVAFIRESTVFEDLSDEAERDEYELLCPDNTRKPVDKFKDCHLARVPSHAVVARSVNGKEDAIWNLLRQAQEKFGKDKSPKFQLFGSPSGQKDLLFKDSAIGFSRVPPRIDSGLYLGSGYFTAIQNLRKSEEEVAARRARVVWCAVGEQELRKCNQWSGLSEGSVTCSSASTTEDCIALVLKGEADAMSLDGGYVYTAGKCGLVPVLAENYKSQQSSDPDPNCVDRPVEGYLAVAVVRRSDTSLTWNSVKGKKSCHTAVDRTAGWNIPMGLLFNQTGSCKFDEYFSQSCAPGSDPRSNLCALCIGDEQGENKCVPNSNERYYGYTGAFRCLAENAGDVAFVKDVTVLQNTDGNNNEAWAKDLKLADFALLCLDGKRKPVTEARSCHLAMAPNHAVVSRMDKVERLKQVLLHQQAKFGRNGSDCPDKFCLFQSETKNLLFNDNTECLARLHGKTTYEKYLGPQYVAGITNLKKCSTSPLLEACEFLRK", "notes": "lactoferrin alone, aqueous solution with a concentration of 60 mg/ml and 80 mg/ml; protein having an antioxidizing action"}},
  "tested_on": "Streptococcus mutans ATCC 35668",
  "test": "antibacterial effectiveness by bacterial count on Petri plates",
  "type": "cell-based",
  "settings": "growth of Streptococcus mutans ATCC 35668",
  "protocol": "Following the same procedure described in Example 4, two compositions of lactoferrin, hydroxyapatite and PHA were prepared, using solutions of lactoferrin with concentrations equal to 60 mg/ml and 80 mg/ml, and the same aqueous suspensions of HA and PHA used in Example (weight ratio between lactoferrin and mixture of HA+PHA equal to 1:1). The antibacterial effectiveness of these compositions was assessed, by means of bacterial count on Petri plates with respect to the growth of Streptococcus mutans ATCC 35668.",
  "data": [
    {"molecule": "B1", "values": [
      {"measurement": "Reduction bacterial growth (%)", "setting": "lactoferrin solution 60 mg/ml", "value": 30, "unit": "%"},
      {"measurement": "Reduction bacterial growth (%)", "setting": "lactoferrin solution 80 mg/ml", "value": 35, "unit": "%"}
    ]}
  ]
}
